Patent US12240882B2, “Fusion proteins comprising an engineered knottin peptide and uses thereof” (The Board of Trustees of the Leland Stanford Junior …, priority 2010, dated 2025)
“Also recorded” adds a separate entry of the source. Ends that are not written are not given here.

Tests used:
HUVECs = assay: HUVEC proliferation assay stimulated with HGF; conditions: 0.5 nM HGF
K562-αvβ3 cells = assay: Binding of AgRP mutant 7A to K562-αvβ3 cells; conditions: read-out: KD against K562-αvβ3 cells
Excerpt: (§1) The αvβ3 integrin receptor is over-expressed on many solid tumor cells making it an important cancer target. The Agouti related protein (AgRP), a cystine-knot peptide, contains four disulfide bonds and four solvent-exposed loops. It was engineered to target αvβ3 integrin receptors with pM binding affinity.

Met receptor = target: T1, Met receptor (Homo sapiens, UniProt P08581); assay: Met receptor phosphorylation assay in PC3 cells; assay type: cell-based; conditions: 0.3 nM HGF, Western blot
T1 construct: PC3 cells express medium levels of the αvβ3 integrin and Met; endogenous in cells; host or cells: PC3 prostate cancer cells
Description: A Met receptor phosphorylation assay was performed in PC3 (prostate cancer cells). Met receptor phosphorylation was assayed by Western blot after stimulation with 0.3 nM HGF. […] (Note: PC3 cells express medium levels of the αvβ3 integrin and Met, and low levels of the α5β1 integrin).

U87MG cells = assay: Binding of AgRP mutant 7A to U87MG cells; conditions: read-out: KD against U87MG cells
Excerpt: as §1

αvβ3 integrin = αvβ3 integrin (Homo sapiens, UniProt P05106+P06756); assay: cRGD competition of EETI 2.5D-Axl binding to K562-αvβ3 cells
[1] = Serum stability, Western Blot; assay type: in vitro ADME; conditions: 40% human serum, 37° C., 7 days
Description: Serum stability of AgRp7A-M2.2(D127A) and EETI2.5F-M2.2(D127A) was shown when the proteins were incubated with 40% human serum at 37° C. for over several days. Samples were analyzed by Western Blot and detected with an antibody against the FLAG epitope tag.

[2] = tested on: human umbilical vein endothelial cells (HUVECs); assay: HUVEC cell binding assay of knottin-NK1 fusions; conditions: read-out: binding affinity (KD) towards HUVECs
Excerpt: HUVECs express medium levels of the αvβ3, αvβ5 integrins, the Met receptor, and a high level of the […] integrin.

human Met-Fc = human Met-Fc (Homo sapiens, UniProt P08581); assay: Dual receptor direct binding assay on K562-αvβ3 cells; conditions: Met-Fc 220 nM, proteins 2 or 20 nM
Description: In this experiment, a mixture of soluble Alexa-488 labeled human Met-Fc (220 nM) and the mono-specific and the multi-specific proteins (2 or 20 nM) were added to K562-αvβ3 cells. Binding was detected by flow cytometry.

Gas6 [3] = target: T2, Gas6 (Homo sapiens, UniProt Q14393); assay: Yeast surface display equilibrium binding to soluble Gas6; parameters: purchased R&D Systems
T2 sequence (Q14393 31-678): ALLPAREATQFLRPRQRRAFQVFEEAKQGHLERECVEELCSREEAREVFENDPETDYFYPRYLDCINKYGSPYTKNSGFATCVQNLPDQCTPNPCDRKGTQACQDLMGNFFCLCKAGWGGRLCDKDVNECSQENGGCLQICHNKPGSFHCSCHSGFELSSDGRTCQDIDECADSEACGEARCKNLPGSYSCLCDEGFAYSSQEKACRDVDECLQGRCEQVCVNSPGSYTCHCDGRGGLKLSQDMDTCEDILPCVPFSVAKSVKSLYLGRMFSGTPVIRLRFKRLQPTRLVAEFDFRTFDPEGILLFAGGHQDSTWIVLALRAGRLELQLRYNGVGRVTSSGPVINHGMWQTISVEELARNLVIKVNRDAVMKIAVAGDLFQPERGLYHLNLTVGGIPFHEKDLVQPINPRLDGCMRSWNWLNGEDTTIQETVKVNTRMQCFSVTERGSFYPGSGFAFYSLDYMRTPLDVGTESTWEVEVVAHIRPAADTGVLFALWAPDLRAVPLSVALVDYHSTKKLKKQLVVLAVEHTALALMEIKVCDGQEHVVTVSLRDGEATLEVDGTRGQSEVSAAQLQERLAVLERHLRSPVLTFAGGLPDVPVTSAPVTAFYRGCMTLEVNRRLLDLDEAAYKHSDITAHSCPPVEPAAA

[4] = Melting temperature of engineered Axl Ig1 clone; conditions: versus wild-type Axl Ig1
Gas6 [5] = target: T2, Gas6; assay: Equilibrium binding of engineered Axl Ig1 clones to Gas6; conditions: binding to Gas6, versus wild-type Axl Ig1

Question: Which “inhibitory effect on HUVEC proliferation” value (HUVECs) does the source give for “EETI RGD mutant binding αvβ3, αvβ5, α5β1, SEQ ID NO: 33 GCPRPRGDNPPLTCKQDSDCLAGCVCGPNGFCG (ends and bridges not checked; cysteine pairing not given here) [EETI2.5F]” here?
Answer: good inhibition

Question: What about the “inhibition of HUVEC proliferation” value (HUVECs; 1 μM, cells alone=90% inhibition) of the same molecule?
Answer: 70%

Question: Which “inhibitory effect on HUVEC proliferation” value (HUVECs) does the source give for “AgRP mutant, SEQ ID NO: 36 GCVRLHESCLGQQVPCCDPAATCYCSGRGDNDLVCYCR (ends and bridges not checked; cysteine pairing not given here) [AgRp7A]” here?
Answer: little inhibitory effect

Question: And the Kd (K562-αvβ3 cells)?
Answer: 0.89 nM

Question: What about the “inhibition of Met phosphorylation” value (Met receptor) of the same molecule?
Answer: did not show inhibition

Question: What about the Kd (U87MG cells) of the same molecule?
Answer: 0.78 nM

Question: For cRGD [reference compound], which “binding of EETI 2.5D-Axl to K562-αvβ3 cells with molar excess of cRGD” value (αvβ3 integrin) is on record?
Answer: inhibits the binding

B1: EETI2.5F-M2.2(D127A): EETI 2.5F knottin fused to NK1 fragment of HGF (M2.2 (D127A)), SEQ ID NO: 89 (protein)
chain: DYKDDDDKPRGCPRPRGDNPPLTCSQDSDCLAGCVCGPNGFCGYAEGQRKRRNTIHEFKKSAKTTLIKIDPALKIKTEKVNTADQCANRCTRNKGLPFTCKAFVFDKARKRCLWFPFNSMSSGVKKEFGHEFDLYENKDYIRACIIGNGRSYRGTVSITKSGIKCQPWSSMIPHEHSFLPSSYRGEDLRENYCRNPRGEEGGPWCFTSDPEVRYEVCDIPQCSEVETRHHHHHH
Question: With B1 as the molecule, how does the “amount of intact fusion protein in serum” value [1] read?
Answer: No significant decrease

Question: What about the “inhibitory effect on HUVEC proliferation” value (HUVECs) of the same molecule?
Answer: higher inhibitory effects

Question: What about the Kd [2] of the same molecule?
Answer: 4.7 ± 0.6 nM

Question: And the “simultaneous binding to soluble Met-Fc and αvβ3 integrin on cells” value (shortened to “simultaneous binding”) (human Met-Fc)?
Answer: able to bind to soluble Met-Fc

B2: EETI2.5F-M2.2: EETI 2.5F knottin fused to NK1 fragment of HGF (M2.2), SEQ ID NO: 88 (protein)
chain: DYKDDDDKPRGCPRPRGDNPPLTCSQDSDCLAGCVCGPNGFCGYAEGQRKRRNTIHEFKKSAKTTLIKIDPALKIKTEKVNTADQCANRCTRNKGLPFTCKAFVFDKARKRCLWFPFNSMSSGVKKEFGHEFDLYENKDYIRDCIIGNGRSYRGTVSITKSGIKCQPWSSMIPHEHSFLPSSYRGEDLRENYCRNPRGEEGGPWCFTSDPEVRYEVCDIPQCSEVETRHHHHHH
Question: For B2, which “simultaneous binding” value (human Met-Fc) is on record?
Answer: able to bind to soluble Met-Fc

B3: Wt EETI-Axl: Wild-type EETI-II fused to the Axl Ig1 N-terminus (protein)
chain: GCPRILMRCKQDSDCLAGCVCGPNGFCGSRGTQAEESPFVGNPGNITGARGLTGTLRCQLQVQGEPPEVHWLRDGQILELADSTQTQVPLGEDEQDDWIVVSQLRITSLQLSDTGQYQCLVFLGHQTFVSQPGYVGLEGLP
Question: With B3 as the molecule, how does the “affinity / binding to Gas6” value (Gas6 [3]) read?
Answer: same affinity as wild-type Axl

B4: Axl S6-1: engineered Axl Ig1, G32S, D87G, V92A, G127R, SEQ ID NO: 62 (protein)
chain: APRGTQAEESPFVSNPGNITGARGLTGTLRCQLQVQGEPPEVHWLRDGQILELADSTQTQVPLGEDEQGDWIVASQLRITSLQLSDTGQYQCLVFLGHQTFVSQPGYVRLEGLP
Question: Which “improvement in melting temperature over wild-type” value [4] does the source give for B4 here?
Answer: 13 °C

Question: What about the “fold improvement in equilibrium binding over wild-type” value (Gas6 [5]) of the same molecule?
Answer: 20 fold

B5: AgRp7A-M2.2(D127A): AgRP 7A knottin fused to NK1 fragment of HGF (M2.2 (D127A)), SEQ ID NO: 86 (protein)
chain: DYKDDDDKPRGCVRLHESCLGQQVPCCDPAATCYCSGRGDNDLVCYCRYAEGQRKRRNTIHEFKKSAKTTLIKIDPALKIKTEKVNTADQCANRCTRNKGLPFTCKAFVFDKARKRCLWFPFNSMSSGVKKEFGHEFDLYENKDYIRACIIGNGRSYRGTVSITKSGIKCQPWSSMIPHEHSFLPSSYRGEDLRENYCRNPRGEEGGPWCFTSDPEVRYEVCDIPQCSEVETRHHHHHH
Question: Which results are given for B5?
Answer: amount of intact fusion protein in serum [1]: No significant decrease; inhibitory effect on HUVEC proliferation (HUVECs): higher inhibitory effects; Kd [2]: 9.4 ± 1 nM; simultaneous binding to soluble Met-Fc and αvβ3 integrin on cells (human Met-Fc): able to bind to soluble Met-Fc

B6: AgRp7A-M2.2: AgRP 7A knottin fused to NK1 fragment of HGF (M2.2), SEQ ID NO: 85 (protein)
chain: DYKDDDDKPRGCVRLHESCLGQQVPCCDPAATCYCSGRGDNDLVCYCRYAEGQRKRRNTIHEFKKSAKTTLIKIDPALKIKTEKVNTADQCANRCTRNKGLPFTCKAFVFDKARKRCLWFPFNSMSSGVKKEFGHEFDLYENKDYIRDCIIGNGRSYRGTVSITKSGIKCQPWSSMIPHEHSFLPSSYRGEDLRENYCRNPRGEEGGPWCFTSDPEVRYEVCDIPQCSEVETRHHHHHH
Question: For B6, which “simultaneous binding” value (human Met-Fc) is on record?
Answer: able to bind to soluble Met-Fc

B7: AgRp7A-Aras4: AgRP 7A knottin fused to NK1 fragment of HGF (Aras4), SEQ ID NO: 66 (protein)
chain: DYKDDDDKPRGCVRLHESCLGQQVPCCDPAATCYCSGRGDNDLVCYCRYAEGQGKRRNTIHEFKKSAKTTLIKIDPALRIKTEKANTADQCANRCTRSKGLPFTCKAFVFDKARKRCLWFPFNSMSSGVKKEFGHEFDLYENKAYIRDCIIGRGRNYRGTVSITKSGIKCQPWSAMIPHEHSFLPSSYRGEDLRENYCRNPRGEEGGPWCYTSDPEVRYEVCDIPQCSEVETRHHHHHH
Question: Which “inhibition of Met phosphorylation” value (Met receptor) does the source give for B7 here?
Answer: Dose dependent decreases; also recorded: slightly higher inhibitory effects
